# Assay: yeast display, Sf9 membrane polyspecificity reagent, FACS + sequencing; frameworks hold sequencing errors
# Method in brief: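 Synthetic nanobody libraries on Saccharomyces cerevisiae BJ5465 were galactose-induced for 36–48 hours, stained 1 hour at 4 °C with 10% biotinylated, detergent-solubilized Sf9 membrane reagent and enriched on streptavidin microbeads. FACS then separated cells into low and high (top ~1%) gates by anti-HA (expression) and streptavidin (reagent binding) fluorescence. Genes were colony-PCR amplified, MiSeq 2 × 250 sequenced and CDR-length filtered. A clone's polyreactivity label is that of its gate of origin.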
row,Sequence,polyreactivity (PSR sort gate)
1,QVQLVESGGGLVQAGGSLRLSCAASGRILDVYVMGWYRQAPGKERELVAAISSGGSTYYADSVKGRFTISRDNAKNTVYLQMNSLKPEDTAVYYCAFYYWGQGTQVTVSS,high polyreactivity
2,QVQLVESGGGLVQAGGSLRLSCAASGRILFFNAMGWYRQAPGKERELVAAISVSGGSTYYADSVKGRFTISRDNAQNTVYLQMNSLKPEDTAVYYCAKGYDFRRRYDYWGQGTQVTVSS,low polyreactivity
3,QVQLVESGGGLVQAGGSLRLSCAASGRILFGYAMGWYRQAPGKERELVADITSTGSTNYADSVKGRFTISRDNAKNTVYLQMNSLNPEDTAVYYCNARRESYYQRYRVDYWGQGTQVTVSS,low polyreactivity
4,QVQLVESGGGLVQAGGSLRLSCAASGRILFRYGMGWYRQAPGKERELVARISWSGGNTHYADSVKGRFTISRDNAKNTVYLQMNSLKPEDTAVYYCNAYYTYWYPRYDYWGQGTQVTVSS,low polyreactivity
5,QVQLVESGGGLVQAGGSLRLSCAASGRILFSYAMGWYRQAPGKERELVATISSGGRTNYADSVKGRFTISRDNAKNTVYLQMNSLKPEDTAVYYCNTEYLVWYPYDYWGQGTQVTVSS,low polyreactivity
6,QVQLVESGGGLVQAGGSLRLSCAASGRILGDYAMGWYIQAPGKERELVAAISSGGTTYYADSVKGRFTISRDNAKNTVYLQMNSLKPEDTAVYYCAALTSTLPAYGYWGQGTQVTVSS,low polyreactivity
7,QVQLVESGGGLVQAGGSLRLSCAASGRILGFNVMGWYRQAPGKERELVAAITTSGGSTYYADSVKGRFTISRDNAKNTVYLQMNSLKPEDTAVYYCAARYRRFRFTHYDYWGQGTQVTVSS,high polyreactivity
8,QVQLVESGGGLVQAGGSLRLSCAASGRILGRNAMGRYRQAPGKEREFVAGISYSGTSTYYADSVKGRFTISRDNAKNTVYLQMNSLKPEDTAVYYCAARSTWFQIRYGYWGQGTQVTVSS,high polyreactivity
9,QVQLVESGGGLVQAGGSLRLSCAASGRILGRNAMGWYRQAPGKEREFVAGISYSGTSTYYADSVKGRFTISRDNAKNTVYLQMNSLKPEDTAVYYCNVKNQVYRRYYYWGQGTQVTVSS,high polyreactivity
10,QVQLVESGGGLVQAGGSLRLSCAASGRILGRYAMGWYRQAPGKEREVVATITSGDDTNYADSVKGRFTISRDHAKNTVYLQMNSLKPEDTAVGFWGQGSQVTVSS,low polyreactivity
11,QVQLVESGGGLVQAGGSLRLSCAASGRILKRNAMGWYRQAPGKERELVAAISWSTGTTYYADSVKGRFTISRDNAKNTVYLQMNSLKPEDTAVYYCAKQIVSGRRVDRNDYWGQGTQVTVSS,low polyreactivity
12,QVQLVESGGGLVQAGGSLRLSCAASGRILKSYAMGWYRQAPGKERELVAAITSSGVSTYYADSVKGRFTISRDNAKNTVYLQMNSLKPEDTAVYYCAARNYRYPIMGYWGQGTEVTVSS,high polyreactivity
13,QVQLVESGGGLVQAGGSLRLSCAASGRILLTYAMGWYRQAPGKERELVAAISSDSRTYYADSVKGLFTISRDNAKNTVYLQMNSLKPEDTAVYYCVRRRYKYDYWGQGTQVTVSS,low polyreactivity
14,QVQLVESGGGLVQAGGSLRLSCAASGRILLYNAMGWYRQAPGKERELVAAISRSGGSTYYADSVKGRFTISRDNAKNTVYLQMNSLKPEDTAVYYCAAQHGYPRYYYWGQGTQVTVSS,high polyreactivity
15,QVQLVESGGGLVQAGGSLRLSCAASGRILNTYTMGWYRQAPGKERELVAAITSRGGSTYYADSVKGRFTISRDNAKNTVYLQMNSLKPEDTAVYYCAAGYPYDYWGQGTQVTVSS,high polyreactivity
16,QVQLVESGGGLVQAGGSLRLSCAASGRILPGNAMGWYRQAPGKERELVATITNGGRTYYADSVKGRFAISRDNAKNTVYLQMNSLKPVDTAVYYCAAVVVRFIYVYFEFEWGQGTQVTVSS,low polyreactivity
17,QVQLVESGGGLVQAGGSLRLSCAASGRILPLYAMGWYRQAPGKERELVADITGSDGSTYYADSVKGRFTISRDNAKNTVYLQMNSLKPEDTAVYYCATDAIGRTPSDPWDYYYWGQGTQVTVSS,low polyreactivity
18,QVQLVESGGGLVQAGGSLRLSCAASGRILPWYAMGWYRQEPGKERELVARIRSTDSSNYADSVKGRFTISRDNAKNTVYLQMNSLKPEDTAFYYCAKVQWGFPYAWLGSDYWGQGTQVTVSS,low polyreactivity
19,QVQLVESGGGLVQAGGSLRLSCAASGRILRSNAMGWYRQAPVKERELVATISQRGGSTYADSVKGRFTISRDNAKNTVYLQMNSLKPEDTAVYYCNVGVPIGGFMSYWGGDYWGQGTQVTVSS,low polyreactivity
20,QVQLVESGGGLVQAGGSLRLSCAASGRILRVYAMGWYRQAPGKERELVAAISSGGSTNYADSVKGRFTISRDNAKNTVYLQMNSLKPEDTAVYDCAATVRGVGYRYYYWGQGTQVTVSS,high polyreactivity
21,QVQLVESGGGLVQAGGSLRLSCAASGRILRYNAMGWYRQAAGKERELVAAISSGGSTYADSVKGRFTISRDNAKNTVYLQMNSLKPDDTAVYYCNAPSVGAAFDYWGQGTQVTVSS,high polyreactivity

row,Sequence,polyreactivity (PSR sort gate)
1,QVQLVESGGGLVQAGGSLRLSCAASGRILTTNAMGRYRQAPGKERELVATISTGSGRTYYADSVKGRFTISRDNAKNTVYLQMNSLKPEDTAVYYCAASRTLRKHRYEYWGQGTQVTVSS,high polyreactivity
2,QVQLVESGGGLVQAGGSLRLSCAASGRILTYYAMGWYRPAPGKERELVAAISWRAGSTYYADSVKGRFTISRDNAKNTVYLQMNSLKPEDTAVYYCAADLPYWYNRKPIFPYYYWGQGTQVTVSS,high polyreactivity
3,QVQLVESGGGLVQAGGSLRLSCAASGRILVGYAMGWYRQAPGKERELVAAITGSGASTYYADSVKGRFKISRDNAKNTVYLQMNSLKPEDTAVYYCAASYFNYGVGIWYDYWGQGTQVTVSS,high polyreactivity
4,QVQLVESGGGLVQAGGSLRLSCAASGRILVSYAMGGYRQAPGKERELVAAISRSGGSTYYADSVKGRFTISLDTAKNTVYLQMNSLKPEDTAVYYCNVYRFSRYDYWGQGTLVTVSS,high polyreactivity
5,QVQLVESGGGLVQAGGSLRLSCAASGRILWDYAMGWYRQAPGKERELVAAISTSSGSTYYADSVKGRFTISRDNAKNTVKLQMNSLKPEHTAVYYCAADNDYSPPWFEYWGQGTQVTVSS,low polyreactivity
6,QVQLVESGGGLVQAGGSLRLSCAASGRILWWYAMGWYRQAPRKEREFFAAITTSGGSTYYADSVKGRFTISRDNAKNTVYLQMTSLKPEDNAVYYCAADLFVRNLVYTYDYDYWGQGTQVTVSA,high polyreactivity
7,QVQLVESGGGLVQAGGSLRLSCAASGRILWYYTMGWYRQAPGKERELVAAISSGGRTHYADSVKGRFTISRDNAKNTVYLQMNSLKPVDTAVYYCAAKYGWGRFNYDYWGQGTQVTVSS,high polyreactivity
8,QVQLVESGGGLVQAGGSLRLSCAASGRILYAYAMGWYRQAPGKERELVAAITWGGGNTYYADSVKGRFTISRDNAKNTVYLQMNSLKPEDTAVYYCAADASTVYSTVPEYDFWGQGTQVTVSS,low polyreactivity
9,QVQLVESGGGLVQAGGSLRLSCAASGRILYGYAMGWYRQAPGKERELVAGISWRGGSTYYADSVKGRFTISRDNAKNTVYLQMNSLKPEDTAVYYCAARGWPSQVPVRVFRYDYWGQGTQVTVSS,high polyreactivity
10,QVQLVESGGGLVQAGGSLRLSCAASGRILYGYAMGWYRQAPGKERELVASITWSGGSTYADSVKGRFTISRDNAKNTVYLQMNSLKPEDTAVYYCATRRGPKWQWLTYGYWGQGTKVTVSS,low polyreactivity
11,QVQLVESGGGLVQAGGSLRLSCAASGRILYKYAMGWYRQAPGKERELVAAISRRGGSTFYADSVKGRFTISRDNAKNTVYLQMNSLKPEDTAVYYCAAGSTRYAGWTYNYWGQGTQVTVSS,high polyreactivity
12,QVQLVESGGGLVQAGGSLRLSCAASGRILYKYAMGWYRQAPGKERELVAAISWRGTTTYYADSVKGRFTISRDNAKNTVYLQMNSLKPEDTAVYYGAIDRSYGYFSRPVSQYDYWGQGTQVTVSS,high polyreactivity
13,QVQLVESGGGLVQAGGSLRLSCAASGRILYPYAMGWYRQAPGTERELVAAITFRGGNTYYADSVKGRFTISRDNAKNTVYLQMNSLKPEDTAVYYCAKRGGYWHKFDYWGQGTQVTVSS,high polyreactivity
14,QVQLVESGGGLVQAGGSLRLSCAASGRILYQYAMAWYRQAPGKERELVASISGRSGRTRYADSVKGRFTISRDNAKNTVYLQMNSLKPEDTAVYYCNAGSSVLKYDYWGQGTQVTVSS,low polyreactivity
15,QVQLVESGGGLVQAGGSLRLSCAASGRILYRNAMGWYRQAPGKERELVAAITTRGTSTYYADSVKGRFTISRDNAKNTVYLQMNSLKPEDTAVYYCAADSWFSYRGPLYYWGQGTQVTVSS,high polyreactivity
16,QVQLVESGGGLVQAGGSLRLSCAASGRILYRYAMGWYRQAPGKERELVAAITWRGGTTYYADSVKGRFTISRDNAKNTVYLQMNSLKPEDTAVYYCNADWWRTLESDYWGQGTQVTVSS,low polyreactivity
17,QVQLVESGGGLVQAGGSLRLSCAASGRILYSYAMGWYRQAPGKERELVASISLSGGRTYADSVKGRFTISRDNAKNTVYLQMNSLKPEDTAVYYCNASIRTSRYLWQFDYWGQGTQVTVSS,high polyreactivity
18,QVQLVESGGGLVQAGGSLRLSCAASGRILYVNTMGWYRQAPGKERELVAGITSRVGSTYYADSVKGRFTISRDNAKNTVYLQMNSLKPEDTAVYYCNARDKFYVPSLYAYDYWGQGTQVTVSS,low polyreactivity
19,QVQLVESGGGLVQAGGSLRLSCAASGRILYVYAMGWYIQAPGKERELVAAITSGGSTHYADSVKGRFTISRDNAKNTVYLQMNSLKPEDTAVYYCAAYTLRNRGGFNYWGQGTQVTVSS,high polyreactivity
20,QVQLVESGGGLVQAGGSLRLSCAASGRILYYYAMGWYRQAPGKERELVAAITSGGSTYADSVKGRFTISRDNAKNTVYLQMNSLKPEDTAVYYCNARPVYGSRFYSAVRMEYWGQGTQVTVSS,low polyreactivity
